Experimental data taken from patent publication US20220177587A1, “METHODS AND USES OF VARIANT CD80 FUSION PROTEINS AND RELATED CONSTRUCTS” (Alpine Immune Sciences, Inc., priority 2018, published 2022).

Key:
CD28 = CD28 (Homo sapiens, UniProt P10747); assay: Jurkat/IL2 + CHO/OKT3 +/- PD-L1 reporter assay: PD-L1-dependent CD28 costimulation; assay type: cell-based; parameters: host or cells: Jurkat cells expressing an IL-2-luciferase reporter; settings: Jurkat/IL2 + CHO/OKT3/PD-L1
Method: Jurkat cells were then plated at 50 μL/well for a total of 100,000 cells per well.
To each well, 25 μL of test protein was added to the Jurkat cells. […] The Jurkat cells with test or control proteins were incubated for 15 minutes at room temperature. CHO-derived artificial antigen presenting cells (aAPC) displaying transduced cell surface anti-CD3 single chain Fv (OKT3) (i.e., no PD-L1), or OKT3 and PD-L1 (i.e., +PD-L1), were brought to 0.8×10^6 cells/mL, and 25 μL of cells were added to each well, bringing the final volume of each well to 100 μL. […] Jurkat cells and CHO cells were incubated for 5 hours at 37 degrees Celsius in a humidified 5% CO2 incubation chamber. Plates were then removed from the incubator and acclimated to room temperature for 15 minutes. 100 μL of a cell lysis and luciferase substrate solution (BioGlo luciferase reagent, Promega) were added to each well and the plates were incubated on an orbital shaker for 10 minutes. Luminescence was measured with a 1 second per well integration time using a BioTek Cytation luminometer, and a relative luminescence value (RLU) was determined for each test sample.

huPD-L1 = huPD-L1 (Homo sapiens, UniProt Q9NZQ7); assay: Flow binding to CHO cells stably expressing PD-L1; parameters: huCTLA4 and huPD-L1, full-length mammalian surface expression constructs were generated; expressed in transfected cells; host or cells: CHO cells, lentiviral transduction, sorted to >98% purity; settings: CHO cells stably expressing PD-L1
huPD-L1, sequence (Q9NZQ7 19-290): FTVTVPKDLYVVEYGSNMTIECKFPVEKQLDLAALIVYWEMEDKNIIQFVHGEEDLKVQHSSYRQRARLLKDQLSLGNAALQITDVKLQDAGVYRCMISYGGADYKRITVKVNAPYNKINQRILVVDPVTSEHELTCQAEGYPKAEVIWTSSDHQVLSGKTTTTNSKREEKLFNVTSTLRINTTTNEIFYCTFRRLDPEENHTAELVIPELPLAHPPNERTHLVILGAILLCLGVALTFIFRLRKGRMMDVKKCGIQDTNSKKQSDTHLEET
Method: (§1) Binding of selected immunomodulatory fusion proteins to cognate binding partners was assessed. […] Cells were sorted in a Bio-Rad S3 Cell Sorter (Bio-Rad Corp., USA) to >98% purity. Jurkat/IL2 reporter cells, which endogenously express CD28, were used to detect binding to CD28.
(§2) For staining and analysis by flow cytometry, 100,000 cells of appropriate transfected cells were plated in 96-well round bottom plates. Cells were spun down and resuspended in staining buffer (phosphate buffered saline (PBS), 1% bovine serum albumin (BSA), and 0.1% sodium azide) for 20 minutes to block non-specific binding. […] Primary staining was performed on ice for 45 minutes, before washing cells in staining buffer twice. Phycoerythrin (PE)-conjugated anti-human Fc (Jackson ImmunoResearch, USA) was diluted 1:150, added to cells and incubated another 30 minutes on ice. Cells were then washed twice with 150 μL/well stain buffer, fixed in 2% formaldehyde/PBS, and analyzed on Intellicyt flow cytometer (Intellicyt Corp., USA). PE Mean Fluorescence Intensity (MFI) was calculated for each cell type with FlowJo Version 10 software (FlowJo LLC, USA).
(§3) Binding assays were carried out to assess the specificity and affinity of multivalent proteins to cell-expressed CTLA-4, CD28, and PD-L1 counter structures.
(§4) The EC50 for binding also was determined.

huCTLA4 = huCTLA4 (Homo sapiens, UniProt P16410); assay: Flow binding to CHO cells stably expressing CTLA4; parameters: huCTLA4 and huPD-L1, full-length mammalian surface expression constructs were generated; expressed in transfected cells; host or cells: CHO cells, lentiviral transduction, sorted to >98% purity; settings: CHO cells stably expressing CTLA4
huCTLA4, sequence (P16410 36-223): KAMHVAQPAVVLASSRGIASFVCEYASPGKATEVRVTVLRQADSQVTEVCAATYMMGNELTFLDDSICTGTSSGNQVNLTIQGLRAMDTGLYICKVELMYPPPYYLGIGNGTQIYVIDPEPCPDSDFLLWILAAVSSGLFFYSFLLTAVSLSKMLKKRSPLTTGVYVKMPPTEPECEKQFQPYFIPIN
Method: as §1, §2, §3, §4

B1: E35D/D46E/M47L/V68M/A71G/Y87C/K93R (protein, UniProt P33681 35-288, looked up, variant E35D D46E M47L V68M A71G Y87C K93R)
T-lymphocyte activation …: VIHVTKEVKEVATLSCGHNVSVEELAQTRIYWQKDKKMVLTMMSGELNIWPEYKNRTIFDITNNLSIMILGLRPSDEGTYECVVLKCEKDAFRREHLAEVTLSVKADFPTPSISDFEIPTSNIRRIICSTSGGFPEPHLSWLENGEELNAINTTVSQDPETELYAVSSKLDFNMTTNHSFMCLIKYGHLRVNQTFNWNTTKQEHFPDNLLPSWAITLISVNGIFVICCLTYCFAPRCRERRRNERLRRESVRPV
Relative Luciferase Units (RLU), CD80 Cone 5.0 nM (CD28; Table E13, 5.0 nM): 1198 RLU

B2: T13R/E35D/M47L/V68M (protein, UniProt P33681 35-288, looked up, variant T13R E35D M47L V68M)
T-lymphocyte activation …: VIHVTKEVKEVARLSCGHNVSVEELAQTRIYWQKDKKMVLTMMSGDLNIWPEYKNRTIFDITNNLSIMILALRPSDEGTYECVVLKYEKDAFKREHLAEVTLSVKADFPTPSISDFEIPTSNIRRIICSTSGGFPEPHLSWLENGEELNAINTTVSQDPETELYAVSSKLDFNMTTNHSFMCLIKYGHLRVNQTFNWNTTKQEHFPDNLLPSWAITLISVNGIFVICCLTYCFAPRCRERRRNERLRRESVRPV
Fold Increase over WT CD80-IgV-Fe (CD28; Table E13, 5.0 nM): 2.6 | Relative Luciferase Units (RLU), CD80 Cone 5.0 nM (CD28; Table E13, 5.0 nM): 1021 RLU

B3: E35D/M47V/N48K/V68M/L85M (protein, UniProt P33681 35-288, looked up, variant E35D M47V N48K V68M L85M)
T-lymphocyte activation …: VIHVTKEVKEVATLSCGHNVSVEELAQTRIYWQKDKKMVLTMMSGDVKIWPEYKNRTIFDITNNLSIMILALRPSDEGTYECVVMKYEKDAFKREHLAEVTLSVKADFPTPSISDFEIPTSNIRRIICSTSGGFPEPHLSWLENGEELNAINTTVSQDPETELYAVSSKLDFNMTTNHSFMCLIKYGHLRVNQTFNWNTTKQEHFPDNLLPSWAITLISVNGIFVICCLTYCFAPRCRERRRNERLRRESVRPV
Fold Increase over WT CD80-IgV-Fe (CD28; Table E13, 5.0 nM): 3.0 | Relative Luciferase Units (RLU), CD80 Cone 5.0 nM (CD28; Table E13, 5.0 nM): 1203 RLU

B4: H18V/A26N/E35D/M47V/V68M/A71G (protein, UniProt P33681 35-288, looked up, variant H18V A26N E35D M47V V68M A71G)
T-lymphocyte activation …: VIHVTKEVKEVATLSCGVNVSVEELNQTRIYWQKDKKMVLTMMSGDVNIWPEYKNRTIFDITNNLSIMILGLRPSDEGTYECVVLKYEKDAFKREHLAEVTLSVKADFPTPSISDFEIPTSNIRRIICSTSGGFPEPHLSWLENGEELNAINTTVSQDPETELYAVSSKLDFNMTTNHSFMCLIKYGHLRVNQTFNWNTTKQEHFPDNLLPSWAITLISVNGIFVICCLTYCFAPRCRERRRNERLRRESVRPV
Relative Luciferase Units (RLU), CD80 Conc 5.0 nM (CD28; Table E24, 5.0 nM): 985 RLU | PD-L1 MFI at 33.3 nM (huPD-L1; Table E23, CD80 IgV-Fc (inert) at 33.3 nM): 68165

B5: V22D/E24D/E35D/M47L/V68M/L85M/D90G (protein)
chain: VIHVTKEVKEVATLSCGHNVSDEDLAQTRIYWQKDKKMVLTMMSGDLNIWPEYKNRTIFDITNNLSIMILALRPSDEGTYECVVMKYEKGAFKREHLAEVTLSVKADFPTPSISDFETPTSNIRRIICSTSGGFPEPHLSWLENGEELNAINTTVSQDPETELYAVSSKLDFNMTTNHSFMCLIKYGHLRVNQTFNWNTTKQEHFPDN
modifications: CD80 v384 ECD
Relative Luciferase Units (RLU), CD80 Cone 5.0 nM (CD28; Table E13, 5.0 nM): 963 RLU | PD-L1 MFI at 33.3 nM (huPD-L1; Table E11, 33.3 nM): 19047

B6: E35D/M38I/M43V/M47V/N48R/L85Q (protein)
chain: VIHVTKEVKEVATLSCGHNVSVEELAQTRIYWQKDKKTVLTMVSGDVRIWPEYKNRTIFDITNNLSIVILALRPSDEGTYECVVQKYEKDAFKREHLAEVTLSVKAD
CTLA4 MFI at 33.3 nM (huCTLA4; Table E4, 33.3 nM variant CD80 IgV-Fc): 203938

B7: T13R/Q27L/Q33L/E35D/T41S/M47V/N48KN68M/L85M (protein)
chain: VIHVTKEVKEVARLSCGHNVSVEELALTRIYWLKDKKMVLSMMSGDVKIWPEYKNRTIFDITNNLSIMILALRPSDEGTYECVVMKYEKDAFKREHLAEVTLSVKAD
Fold Increase over WT CD80-IgV-Fe (CD28; Table E13, 5.0 nM): 0.4 | Relative Luciferase Units (RLU), CD80 Cone 5.0 nM (CD28; Table E13, 5.0 nM): 170 RLU

B8: H18Y/E35D/M47L/A71G (protein)
chain: VIHVTKEVKEVATLSCGYNVSVEELAQTRIYWQKDKKMVLTMMSGDLNIWPEYKNRTIFDITNNLSIVILGLRPSDEGTYECVVLKYEKDAFKREHLAEVTLSVKAD
Relative Luciferase Units (RLU), CD80 Conc 5.0 nM (CD28; Table E22, CD80 Conc 5.0 nM): 1387 RLU

B9: H18Y/A26P/E35D/M47T/V68M/A71G (protein)
chain: VIHVTKEVKEVATLSCGYNVSVEELPQTRIYWQKDKKMVLTMMSGDINIWPEYKNRTIFDITNNLSIMILGLRPSDEGTYECVVLKYEKDAFKREHLAEVTLSVKAD
Fold Increase over WT CD80-IgV-Fe (CD28; Table E24, 5.0 nM): 4.5 | Relative Luciferase Units (RLU), CD80 Conc 5.0 nM (CD28; Table E24, 5.0 nM): 761 RLU

B10: H181/A26P/E35D/M47V/V68M/A71G (protein)
chain: VIHVTKEVKEVATLSCGINVSVEELPQTRIYWQKDKKMVLTMMSGDVNIWPEYKNRTIFDITNNLSIMILGLRPSDEGTYECVVLKYEKDAFKREHLAEVTLSVKAD
Fold Increase over WT CD80-IgV-Fe (CD28; Table E24, 5.0 nM): 5.4 | Relative Luciferase Units (RLU), CD80 Conc 5.0 nM (CD28; Table E24, 5.0 nM): 916 RLU

B11: M47V/N48K/V68M/K89N (protein)
chain: VIHVTKEVKEVATLSCGHNVSVEELAQTRIYWQKEKKMVLTMMSGDVKIWPEYKNRTIFDITNNLSIMILALRPSDEGTYECVVLKYENDAFKREHLAEVTLSVKAD
Relative Luciferase Units (RLU), CD80 Conc 5.0 nM (CD28; Table E21, CD80 Conc 5.0 nM): 671 RLU | PD-L1 MFI at 33.3 nM (huPD-L1; Table E19, 33.3 nM): 23666

B12: H18Y/E35D/M47V/N48K (protein)
chain: VIHVTKEVKEVATLSCGYNVSVEELAQTRIYWQKDKKMVLTMMSGDVKIWPEYKNRTIFDITNNLSIVILALRPSDEGTYECVVLKYEKDAFKREHLAEVTLSVKAD
Relative Luciferase Units (RLU), CD80 Cone 5.0 nM (CD28; Table E12, 5.0 nM): 2146 RLU | PD-L1 MFI at 33.3 nM (huPD-L1; Table E10, 33.3 nM): 6462

B13: H18Y/M47L/V68M/A71G (protein)
chain: VIHVTKEVKEVATLSCGYNVSVEELAQTRIYWQKEKKMVLTMMSGDLNIWPEYKNRTIFDITNNLSIMILGLRPSDEGTYECVVLKYEKDAFKREHLAEVTLSVKAD
PD-L1 MFI at 33.3 nM (huPD-L1; Table E20, 33.3 nM): 28478

B14: D46V/M47L (protein)
chain: VIHVTKEVKEVATLSCGHNVSVEELAQTRIYWQKEKKMVLTMMSGVLNIWPEYKNRTIFDITNNLSIVILALRPSDEGTYECVVLKYEKDAFKREHLAEVTLSVKAD
CTLA4 MFI at 33.3 nM (huCTLA4; Table E19, 33.3 nM): 49711

B15: E35D/M47V/V68M (protein)
chain: VIHVTKEVKEVATLSCGHNVSVEELAQTRIYWQKDKKMVLTMMSGDVNIWPEYKNRTIFDITNNLSIMILALRPSDEGTYECVVLKYEKDAFKREHLAEVTLSVKAD
Relative Luciferase Units (RLU), CD80 Conc 5.0 nM (CD28; Table E21, CD80 Conc 5.0 nM): 841 RLU

B16: E35D/D46V (protein)
chain: VIHVTKEVKEVATLSCGHNVSVEELAQTRIYWQKDKKMVLTMMSGVMNIWPEYKNRTIFDITNNLSIVILALRPSDEGTYECVVLKYEKDAFKREHLAEVTLSVKAD
PD-L1 MFI at 33.3 nM (huPD-L1; Table E19, 33.3 nM): 3971

B17: D46V/M47L/V68M/L85Q (protein)
chain: VIHVTKEVKEVATLSCGHNVSVEELAQTRIYWQKEKKMVLTMMSGVLNIWPEYKNRTIFDITNNLSIMILALRPSDEGTYECVVQKYEKDAFKREHLAEVTLSVKAD
Relative Luciferase Units (RLU), CD80 Conc 5.0 nM (CD28; Table E21, CD80 Conc 5.0 nM): 654 RLU
